Laboratory results as given in paper PMC8631942 (eLife, 2021).

Assays:
[1] = target: T1, His10-PD-1^ICD PD-1^FY, pre-phosphorylated (human, UniProt Q15116 194-288, Y223F, pre-phosphorylated with Fyn; the only tyrosine is in the ITSM (Y248)); assay: SPR; OpenSPR (Nicoya); pre-phosphorylated His10-tagged PD-1 or BTLA ICD immobilised on a Ni sensor chip (about 1500 RU); SH2 injected at 20-1000 nM, 20 μl/min; 20 mM HEPES, 150 mM NaCl, 5 mM imidazole, 0.05% Tween-20, 10% glycerol, pH 7.5; equilibrium analysis (Evaluate EC50, TraceDrawer); settings: both partners purified
T1 construct: Monomeric fraction of the gel filtration was used; also called PD-1-ITSM; phosphorylated PD-1-ITSM; source: E. coli (pET28A), purified (Ni-NTA, gel filtration); phosphorylated with purified Fyn; not shown: His10, N-terminal, kept
T1 sequence (looked up): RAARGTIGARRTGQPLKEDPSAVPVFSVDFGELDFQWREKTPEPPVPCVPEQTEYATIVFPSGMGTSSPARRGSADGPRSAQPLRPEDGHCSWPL

[2] = target: T2, His10-BTLA^ICD BTLA^FFFY, pre-phosphorylated (human, UniProt Q7Z6A9 190-289, Y226F | Y243F | Y257F, pre-phosphorylated with Fyn; lone tyrosine (Y282) in the ITSM); assay: as above; settings: both partners purified
T2 construct: BTLA intracellular domain, human, aa 190-289; triple-tyrosine mutant; Monomeric fraction of the gel filtration was used; also called BTLA-ITSM; source: E. coli (pET28A), purified (Ni-NTA, gel filtration); phosphorylated with purified Fyn; not shown: His10, N-terminal, kept
T2 sequence (looked up): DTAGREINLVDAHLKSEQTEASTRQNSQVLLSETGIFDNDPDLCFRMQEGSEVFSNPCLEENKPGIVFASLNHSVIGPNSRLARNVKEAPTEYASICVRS

B1: SNAP-SHP1-cSH2 (domain or fragment)
chain: WYHGHMSGGQAETLLQAKGEPWTFLVRESLSQPGDFVLSVLSDQPKAGPGSPLRVTHIKVMCEGGRYTVGGLETFDSLTDLVEHFKKTGIEEASGAFVYLRQPY
Kd [1]: 1700 nM
Kd [2]: 860 nM
